Experimental data: US8796183B2, “Template fixed beta-hairpin loop mimetics and their use in phage display” (Polyphor Ltd., priority 2003, dated 2014)
Positions of bridges follow the written chain, without caps; N, C: chain ends. No end group written: not given here.

experiment: Circular dichroism; assay type: physicochemical; settings: linear precursor of the compound (before disulfide bridge formation), 10^−4 M in water as TFA salt, room temperature (FIG. 7)
Text: Circular dichroism measurements are sensitive to the secondary structure of both peptides and proteins and have been extensively used to examine the conformation of both (M. Jourdan, S. R. Griffiths-Jones, M. S. Searle, Eur. J. Biochem. 2000, 267, 3539-3548; J. T. Pelto, L. R. Mc. Lean, Analytical Biochemistry, 2000, 277, 167-176).
Circular Dichroism spectra were obtained on a Jasco J-715 spectropolarimeter, equipped with a spectra manager for windows 95/NT. Version 1.52.01 [Build2]. All measurements were performed at room temperature in quartz cells of 0.1 cm path length in water. Spectra were recorded with a 1 nm bandwidth, five scans were collected to improve the signal-to-noise ratio and the solvent baseline was recorded and subtracted from the spectra of the samples. All CD spectra were smoothed (with the same value), and are reported as molecular ellipticity units (Mol. Ellip.) of peptide residue.
Measurement parameters: Band width: 1.0 nm, response: 1 s, sensitivity: standard, measurement range: 240-190 nm, data pitch: 0.5 nm, scanning speed: 50 nm/min. Concentration of the linear deprotected, purified peptide solutions: 10^−4 M in water as TFA salts. The pH and purity of the linear deprotected, purified peptides as precursors of the following examples were: Example 3: pH 6.38, purity 91%; Example 4: pH 6.77, purity 89%; Example 5: pH 6.01, purity 98%; Example 9: pH 6.00, purity 94%.

Substance | CD-spectrum: secondary structure content
Example 3: Ac-NH-Cys-Thr-Lys-Trp-Phe-Ser-Asn-His-Tyr-Gln-Thr-Cys-H, cysteines linked by a disulfide bridge; reference not having a template (Ac-CTKWFSNHYQTC; disulfide 1-12 (inferred); also: C-terminus written as -H) | mixture of a coil structure and a β-sheet structure
Example 4: Ac-NH-Glu-Thr-Cys-Thr-Lys-Trp-Phe-Ser-Asn-His-Tyr-Gln-Thr-Cys-Thr-Lys-H, cysteines linked by a disulfide bridge (Ac-ETCTKWFSNHYQTCTK; disulfide 3-14 (inferred); also: C-terminus written as -H) | high content of a β-sheet structure
Example 5: Ac-NH-Cys-Thr-Lys-Trp-Phe-Leu-Ala-His-Tyr-Ala-Thr-Cys-H, cysteines linked by a disulfide bridge; reference not having a template (Ac-CTKWFLAHYATC; disulfide 1-12 (inferred); also: C-terminus written as -H) | high content of coil- and α-helix structure and traces of a β-sheet structure
Example 9: Ac-NH-Glu-Thr-Cys-Thr-Lys-Trp-Phe-Leu-Ala-His-Tyr-Ala-Thr-Cys-Thr-Lys-H, cysteines linked by a disulfide bridge (Ac-ETCTKWFLAHYATCTK; disulfide 3-14 (inferred); also: C-terminus written as -H) | high content of β-sheet structure and a β-turn structure
